Experimental findings from the supplement of paper PMC10567573 are described below.

± gives the standard deviation.

The data set is described as follows: protein stability index of a GFP-peptide fusion (GPS, HEK-293T) (PSI 1-6); higher = more stable. The note with it: c terminus: a fixed tail appended.
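Note: 24-mer peptide tiles fused after GFP, lentivirally expressed, FACS-sorted into six equal bins by GFP/DsRed ratio, decoded by Illumina sequencing, PSI is the read-weighted mean bin number.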

For the sequence AAALLSNTTCQTENRLSVFFSVIF [PTGFR], the protein stability index was 2.43 ± 0.35 (treatment: DMSO) and 2.33 ± 0.18 (treatment: MLN4924 1 uM, 8 h).
For the sequence AAAPVAEVPTAAGALTPTPAPTTT [CLPTM1], the protein stability index (treatment: DMSO) came to 5.3 ± 0.34 and the protein stability index (treatment: MLN4924 1 uM, 8 h) is 5.25 ± 0.097.
For AACTRALESSEELLETANQTLQAM [FSD1], in that order: 5.14 ± 0.16 and 4.84 ± 0.38.
For AAGELPTVECYNPRTNEWTYVAKM [KLHL13], in that order: 3.11 ± 0.37 and 3.2 ± 0.42.
For AALRIANCKLFRLQLQQGLFRIRV [GAN], in that order: 2.8 ± 0.57 and 2.58 ± 0.51.
On to AARNACRAGTEPSDAIRVVNAVLT [TRIP13], for which the protein stability index (treatment: DMSO) is 3 ± 0.45 and the protein stability index (treatment: MLN4924 1 uM, 8 h) stood at 3.19 ± 0.33.
In the case of AATQVFFALGLGFGGVIAFSSYNK [SLC6A17], the protein stability index by setting is: (treatment: DMSO) 2.64 ± 0.43; (treatment: MLN4924 1 uM, 8 h) 2.83 ± 0.67.
On the same counts, the results for ACRANVKSGAIMSALSDTEIQREI [PPFIA4] are 3.41 ± 0.29 and 3.57 ± 0.47.
For ADNMLEYKSWLKNLAKEQLSRENI [PPEF2], in that order: 3.61 ± 0.27 and 3.75 ± 0.38.
On to ADSGRYRASPTRTAPLPMPEGPEP [ELOA2], for which the protein stability index is, setting by setting: (treatment: DMSO) 4.84 ± 0.32; (treatment: MLN4924 1 uM, 8 h) 4.96 ± 0.28.
On the same counts, the results for ADSSAQAAAQAPENFQEGKDMSES [TAF7L] are 5.72 ± 0.14 and 5.49 ± 0.39.
With AEGTPRSNHSAQDSAVENLLLLSK [IKZF1], the protein stability index is, setting by setting: (treatment: DMSO) 4.67 ± 0.41; (treatment: MLN4924 1 uM, 8 h) 4.86 ± 0.95.
For AEKCLDFLVDMFNDEIEEVRLQSI [INTS4], in that order: 2.94 ± 0.16 and 2.94 ± 0.4.
On the same counts, the results for AEKLKAQGEYSRKLEERFMTLAAN [CCDC89] are 3.4 ± 0.41 and 3.49 ± 0.45.
As to AFGYFITACAVIILTIICYLGLPR [SLC29A1], the protein stability index was 2.3 ± 0.52 (treatment: DMSO) and 2.32 ± 0.41 (treatment: MLN4924 1 uM, 8 h).
For the sequence AFHEPQVGLIQAAQQLLCDEQAPQ [DFFB], the protein stability index runs as follows: (treatment: DMSO) 4.64 ± 0.18; (treatment: MLN4924 1 uM, 8 h) 4.92 ± 0.18.
As for AFLGDAEIIELLILSGARVNAKDN [ANKRD44], the protein stability index is 2.45 ± 0.73 (treatment: DMSO) and 2.32 ± 0.23 (treatment: MLN4924 1 uM, 8 h).
On the same counts, the results for AGALAQGGGPSATEWACILRRKTP [C6orf223] are 3.56 ± 0.17 and 3.75 ± 0.29.
On the same counts, the results for AGGQDMADSMLMQGSRGLTDQAIF [HDAC6] are 3.73 ± 0.054 and 3.86 ± 0.38.
For the sequence AGKLRLLREMCALSFQEELLYWGI [KCNG1], the protein stability index by setting is: (treatment: DMSO) 2.88 ± 0.5; (treatment: MLN4924 1 uM, 8 h) 2.34 ± 0.24.
AGNKAALLDQIREGAQLKKVEQNS [WASL] came in with a protein stability index (treatment: MLN4924 1 uM, 8 h) of 5.24 ± 0.4.
On to AGPGAAEPLPVERDPAAGAAPFRF [ZNF511], for which the protein stability index runs as follows: (treatment: DMSO) 4.38 ± 0.17; (treatment: MLN4924 1 uM, 8 h) 4.64 ± 0.29.
As for AGSVFGGGFGGGVGGGFGGGFGGG [KRT15], the protein stability index runs as follows: (treatment: DMSO) 2.56 ± 0.23; (treatment: MLN4924 1 uM, 8 h) 2.65 ± 0.21.
Regarding AHEYIFCFVLGFFYPVMLILFLVI [SOAT2], the protein stability index runs as follows: (treatment: DMSO) 2.98 ± 0.56; (treatment: MLN4924 1 uM, 8 h) 3.03 ± 0.23.
For AHIHLQQLTCFSITCSSTMSYSCC [KRT34], in that order: 3.37 ± 0.64 and 2.95 ± 0.26.
On the same counts, the results for AHVGMELQLKQELAMLNAVTEDLR [SCARA5] are 3.27 ± 0.27 and 3.16 ± 0.45.
For AIDQYRVCQEVLERSRDVVDDVSV [RHOBTB2], in that order: 4.66 ± 0.31 and 4.78 ± 0.13.
Turning to AIELFHSYRETRRKEGIVKLKPHE [PTPN9], the protein stability index reads like this: (treatment: DMSO) 3 ± 0.2; (treatment: MLN4924 1 uM, 8 h) 3.25 ± 0.27.
AIHQDPPDECGKTEFTRFLCSSPL [ATE1]: the protein stability index by setting is: (treatment: DMSO) 3.78 ± 0.24; (treatment: MLN4924 1 uM, 8 h) 3.82 ± 0.17.
Take AIIRERSSCVKILLDHNANIDIQN [ASB7]: the protein stability index by setting is: (treatment: DMSO) 2.52 ± 0.4; (treatment: MLN4924 1 uM, 8 h) 2.64 ± 0.26.
On the same counts, the results for AKAEGFTASTKNCMVGYDMGATRC [CPXM2] are 3.42 ± 0.31 and 3.62 ± 0.1.
On the same counts, the results for AKDYADSIHAIFVETSAKNAININ [RAB22A] are 2.59 ± 0.27 and 2.48 ± 0.34.
On the same counts, the results for AKHMGLEPPPEVWQVLKTHPGDPR [POLD4] are 3.77 ± 0.25 and 3.93 ± 0.48.
ALAAIYEEKEAWYREESDSLGQDL [DAPK3] came in with a protein stability index (treatment: MLN4924 1 uM, 8 h) of 4.6 ± 0.5.
With ALARKQAQEQLRPQTPEPVEGRKH [RSPH3], the protein stability index runs as follows: (treatment: DMSO) 5.33 ± 0.18; (treatment: MLN4924 1 uM, 8 h) 5.31 ± 0.28.
Regarding ALLFIPRRAPFDLFENKKKKNNIK [HSP90AB1], the protein stability index (treatment: DMSO) amounted to 2.19 ± 0.27.
ALRMATWNQILDPWVYILLRKAVL [PTGFR]: the protein stability index is 2.98 ± 0.68 (treatment: DMSO) and 2.43 ± 0.41 (treatment: MLN4924 1 uM, 8 h).
